Test results taken from article PMC11257959.

Tested on: NG-RYBP (Homo sapiens)
Assay: EMSA
Conditions: n=3; almost fourfold; EMSA: 25 mM Tris-HCl pH 7.5, 50 mM NaCl, 0.05% Tween 20, 5 mM MgCl2, 4% glycerol, 0.2 nM nucleosome, 10 min on ice, 1% agarose 0.4x TBE; cryo-EM binding: 50 mM …

Nuc (EMSA, 201 bp 601)
binding signal (fold lower affinity than NucH2Aub1): 4
